Laboratory results reported in US20190025332A1 (Novo Nordisk, published 2019).

Key:
hGDNF = target: T1, hGDNF (human, UniProt P39905 78-211); assay: SPR; ligand as analyte over immobilised hGFRAL(ECR)-Fab-HPC4
T1 sequence (looked up): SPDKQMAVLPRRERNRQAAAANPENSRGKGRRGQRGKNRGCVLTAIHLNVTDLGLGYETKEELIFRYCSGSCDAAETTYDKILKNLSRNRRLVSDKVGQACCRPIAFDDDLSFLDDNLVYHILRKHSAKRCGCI
Text: (§1) For SPR-based binding assay, wtMIC-1 as well as hGDNF, hNRTN, hARTN and hPSPN, at various concentrations were run as flow-through analytes. hGFRAL(ECR)-Fab and mGFRAL(ECR)-Fab were immobilized as ligand. […] FCRL2-Fab-HPC4 (Ctrl.-Fab-HPC4) was used as control. Please see FIG. 5 and Table 4.

hNRTN = target: T2, hNRTN (human, UniProt Q99748 96-197); assay: as above
T2 sequence (looked up): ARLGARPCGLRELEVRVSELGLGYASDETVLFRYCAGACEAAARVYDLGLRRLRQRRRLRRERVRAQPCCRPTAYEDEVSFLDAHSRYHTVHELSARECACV
Text: as §1

hARTN = target: T3, hARTN (human, UniProt Q5T4W7 108-220); assay: as above
T3 sequence (looked up): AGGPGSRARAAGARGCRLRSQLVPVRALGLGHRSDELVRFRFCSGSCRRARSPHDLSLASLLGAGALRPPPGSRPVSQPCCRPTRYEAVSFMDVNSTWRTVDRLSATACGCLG
Text: as §1

hPSPN = target: T4, hPSPN (human, UniProt O60542 61-156, limits assumed); assay: as above
T4 sequence (looked up): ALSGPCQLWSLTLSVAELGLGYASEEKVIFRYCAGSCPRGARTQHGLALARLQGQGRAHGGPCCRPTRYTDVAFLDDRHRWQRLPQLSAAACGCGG
Text: as §1

wild type human MIC-1 = target: T5, wild type human MIC-1 (human, UniProt Q99988 197-308); assay: SPR; GFRAL fragment as analyte over immobilised wtMIC-1; relative to hGFRAL(ECR) set as 100%
T5 construct: also called wtMIC-1; hMIC-1
T5 sequence: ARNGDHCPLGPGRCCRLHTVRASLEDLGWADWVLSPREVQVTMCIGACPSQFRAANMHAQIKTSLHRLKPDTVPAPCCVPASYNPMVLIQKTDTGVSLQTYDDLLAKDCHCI
Description: MIC-1 interactions with soluble GFRAL fragments were assessed by SPR-based binding assay. A Biacore® 4000 (GE Healthcare, Piscataway, N.J., USA) instrument was used for SPR-based binding assay. The assays were performed at 25° C. at flow rates of 30 μL/minute in 1× HBS-P running buffer (BR-1006-71, GE Healthcare, Piscataway, N.J., USA). Purified GFRAL fragments at various concentrations were run as flow-through analyte and wtMIC-1 was immobilized as ligand. Please see FIG. 6 and Table 5.

B1: hGFRAL(ECR)-Fab-HPC4 (receptor)
chain: QTNNCTYLREQCLRDANGCKHAWRVMEDACNDSDPGDPCKMRNSSYCNLSIQYLVESNFQFKECLCTDDFYCTVNKLLGKKCINKSDNVKEDKFKWNLTTRSHHGFKGMWSCLEVAEACVGDVVCNAQLASYLKACSANGNPCDLKQCQAAIRFFYQNIPFNIAQMLAFCDCAQSDIPCQQSKEALHSKTCAVNMVPPPTCLSVIRSCQNDELCRRHYRTFQSKCWQRVTRKCHEDENCISTLSKQDLTCSGSDDCKAAYIDILGTVLQVQCTCRTITQSEESLCKIFQHMLHRKSCFNYPTLSNVKGMALYTRKHANKITLTGFHSPFNGEGGGGSGGGGSDVVMTQTPLSLPVSLGDQASISCRSSQSLLHSNGNTYLHWYLQKPGQSPKLLIYKVSNRFSGVPDRFSGSGSGTDFTLKISRVEAEDLGVYFCSQSTHVPWTFGGGTKLEIKRADAAPTVSIFPPSSEQLTSGGASVVCFLNNFYPKDINVKWKIDGSERQNGVLNSWTDQDSKDSTYSMSSTLTLTKDEYERHNSYTCEATHKTSTSPIVKSFNRNEC
heavy: EVQIQESGPSLVKPSQTLSLTCSVSGDSITSGYWNWIRKFPGHKIEYMGTISYSGDTYYNPSLKSRISITRDTSKNQYYLHLNSVTTEDTATYYCARYGSYVFDYWGQGTTLTVSSAKTTPPSVYPLAPGSAAQTNSMVTLGCLVKGYFPEPVTVTWNSGSLSSGVHTFPAVLQSDLYTLSSSVTVPSSTWPSETVTCNVAHPASSTKVDKKIVPRDCGGGGSEDQVDPRLIDGK
B1: no binding (hGDNF); no binding (hNRTN); no binding (hARTN). The binding result (hPSPN) was “no binding” and the “% of Binding” value (wild type human MIC-1) was 100%.
